This is an account of results in PMC9699676, “Host nucleases generate prespacers for primed adaptation in the E. coli type I-E CRISPR-Cas system”.

Data set [1] has as its target T1, Cas1;Cas2 (Escherichia coli;Escherichia coli, UniProt Q46896;P45956 1-305;1-94, |).
T1 sequence 1: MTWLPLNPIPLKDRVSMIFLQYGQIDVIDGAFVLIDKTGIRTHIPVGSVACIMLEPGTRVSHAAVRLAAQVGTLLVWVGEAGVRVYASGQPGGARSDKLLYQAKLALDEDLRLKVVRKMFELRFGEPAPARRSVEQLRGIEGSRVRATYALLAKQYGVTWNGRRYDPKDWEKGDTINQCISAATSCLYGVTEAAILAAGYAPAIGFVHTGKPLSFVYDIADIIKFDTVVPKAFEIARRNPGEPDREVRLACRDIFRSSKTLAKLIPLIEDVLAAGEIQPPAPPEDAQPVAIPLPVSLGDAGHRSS
T1 sequence 2: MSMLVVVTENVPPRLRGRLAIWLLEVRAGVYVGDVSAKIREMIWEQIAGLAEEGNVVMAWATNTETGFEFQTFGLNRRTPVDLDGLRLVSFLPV
Description: EMSA; strands added separately; 40 mM Tris-HCl pH 7.5, 50 mM NaCl, 10 mM MgCl2, 0.5 mM TCEP, 0.1 mg/ml BSA; EMSA (Fig. S9) 25 nM DNA, 2 uM Cas1-Cas2, 37 C 30 min; footprinting 0.2 uM DNA, 1.6. The note with it: protein: recombinant;recombinant, tags: ;, chain copies: 4;2, label: 5'-32P on strand 1, 33-bp duplex. (In EMSA bound probe runs differently from free probe, usually more slowly.)

Data set [2] has as its target T1, Cas1;Cas2. As to the kind of experiment: EMSA; preannealed; longer overhang stimulated binding; 40 mM Tris-HCl pH 7.5, 50 mM NaCl, 10 mM MgCl2, 0.5 mM TCEP, 0.1 mg/ml BSA; EMSA (Fig. S9) 25 nM DNA, 2 uM Cas1-Cas2, 37 C 30 min; footprinting 0.2 uM DNA, 1.6. The note with it: protein: recombinant;recombinant, tags: ;, chain copies: 4;2, label: 5'-32P on strand 1, 28-bp duplex.

The target of data set [3] is T1, Cas1;Cas2. As to the kind of experiment: EMSA; preannealed; reference for substrate 10; 40 mM Tris-HCl pH 7.5, 50 mM NaCl, 10 mM MgCl2, 0.5 mM TCEP, 0.1 mg/ml BSA; EMSA (Fig. S9) 25 nM DNA, 2 uM Cas1-Cas2, 37 C 30 min; footprinting 0.2 uM DNA, 1.6. As to conditions: protein: recombinant;recombinant; tags: ;; chain copies: 4;2; label: 5'-32P on strand 1; 23-bp duplex, 3' overhang 5 nt on each end.

Data set [4] addresses T1, Cas1;Cas2. Description: exonuclease footprinting; RecJ with RecBC or RecBCD, 1 mM ATP; 33-nt product; 40 mM Tris-HCl pH 7.5, 50 mM NaCl, 10 mM MgCl2, 0.5 mM TCEP, 0.1 mg/ml BSA; EMSA (Fig. S9) 25 nM DNA, 2 uM Cas1-Cas2, 37 C 30 min; footprinting 0.2 uM DNA, 1.6. The note with it: protein: recombinant;recombinant; tags: ;; chain copies: 4;2; label: 3'-FAM on strand 1; fork; 23-bp duplex; extended 5' arm annealed to strand 3 as 15-bp blunt duplex.

Data set [5] deals with T1, Cas1;Cas2. Description: EMSA; preannealed; 40 mM Tris-HCl pH 7.5, 50 mM NaCl, 10 mM MgCl2, 0.5 mM TCEP, 0.1 mg/ml BSA; EMSA (Fig. S9) 25 nM DNA, 2 uM Cas1-Cas2, 37 C 30 min; footprinting 0.2 uM DNA, 1.6. The note with it: protein: recombinant;recombinant; tags: ;; chain copies: 4;2; label: 5'-32P on strand 1; 28-bp duplex, single 3' overhang 5 nt.

B1: substrate 10 (33/37) (dsDNA)
DNA 1: GCCCAATTTACTACTCGTTCTGGTGTTTCTCGT
DNA 2: ACGAGAAACACCAGAACGAGTAGTAAATTGGGCTTGA
Take B1: in the data set with Cas1;Cas2 [1] (single 3' overhang 4 nt with PAM), the binding signal is 18 fold more than preannealed.

B2: substrate 9 (33/35) (dsDNA)
DNA 1: B1 DNA 1
DNA 2: ACGAGAAACACCAGAACGAGTAGTAAATTGGGCTT
For the molecule B2, the binding signal with Cas1;Cas2 [1] (single 3' overhang 2 nt with PAM) was 5 fold more than preannealed.

B3: substrate 5 (dsDNA)
DNA 1: ATTTACTACTCGTTCTGGTGTTTCTCGT
DNA 2: B1 DNA 2
In the case of B3, the binding result with Cas1;Cas2 [2] (single 3' overhang 9 nt with PAM) was “binds”.

B4: substrate 2 (dsDNA)
DNA 1: ATTTACTACTCGTTCTGGTGTTTCTCGT
DNA 2: AAACACCAGAACGAGTAGTAAATTGGGC
Consider B4, for which the binding result in the data set with Cas1;Cas2 [3] is “binds”.

B5: double fork with 15-bp blunt end (Fig. 4B, S7) (dsDNA)
DNA 1: CCGCCTTAACCGGTCAACCTAAACATTTACCGCGCGATCGGGTGTTTGGTGA
DNA 2: CACAAAAACACCCGATCGCGCGGTAAATTGGGCTTGG
DNA 3: GACCGGTTAAGGCGG
As for B5, the binding result with Cas1;Cas2 [4] is “binds”.

B6: substrate 3 (dsDNA)
DNA 1: ATTTACTACTCGTTCTGGTGTTTCTCGT
DNA 2: ACGAGAAACACCAGAACGAGTAGTAAATTGGGC
For B6, the binding result in the data set with Cas1;Cas2 [5] was “binds”.

B7: substrate 4 (dsDNA)
DNA 1: ATTTACTACTCGTTCTGGTGTTTCTCGT
DNA 2: B2 DNA 2
Take B7: in the data set with Cas1;Cas2 [2] (single 3' overhang 7 nt with PAM), the binding result is on record as “binds”.
